To fix the notation:
B1: Dermcidin (protein)
chain: YDPEAASAPGSGNPCHEASAAQKENAGEDPGLARQAPKPRKQRSSLLEKGLDGAKKAVGGLGKLGKDAVEDLESVGKGAVHDVKDVLDSVL
B2: Serpin B12 (protein)
chain: MDSLVTANTKFCFDLFQEIGKDDRHKNIFFSPLSLSAALGMVRLGARSDSAHQIDEVLHFNEFSQNESKEPDPCLKSNKQKAGSLNNESGLVSCYFGQLLSKLDRIKTDYTLSIANRLYGEQEFPICQEYLDGVIQFYHTTIESVDFQKNPEKSRQEINFWVECQSQGKIKELFSKDAINAETVLVLVNAVYFKAKWETYFDHENTVDAPFCLNANENKSVKMMTQKGLYRIGFIEEVKAQILEMRYTKGKLSMFVLLPSHSKDNLKGLEELERKITYEKMVAWSSSENMSEESVVLSFPRFTLEDSYDLNSILQDMGITDIFDETRADLTGISPSPNLYLSKIIHKTFVEVDENGTQAAAATGAVVSERSLRSWVEFNANHPFLFFIRHNKTQTILFYGRVCSP
B3: Serpin B3 (protein)
chain: MNSLSEANTKFMFDLFQQFRKSKENNIFYSPISITSALGMVLLGAKDNTAQQIKKVLHFDQVTENTTGKAATYHVDRSGNVHHQFQKLLTEFNKSTDAYELKIANKLFGEKTYLFLQEYLDAIKKFYQTSVESVDFANAPEESRKKINSWVESQTNEKIKNLIPEGNIGSNTTLVLVNAIYFKGQWEKKFNKEDTKEEKFWPNKNTYKSIQMMRQYTSFHFASLEDVQAKVLEIPYKGKDLSMIVLLPNEIDGLQKLEEKLTAEKLMEWTSLQNMRETRVDLHLPRFKVEESYDLKDTLRTMGMVDIFNGDADLSGMTGSRGLVLSGVLHKAFVEVTEEGAEAAAATAVVGFGSSPTSTNEEFHCNHPFLFFIRQNKTNSILFYGRFSSP
B4: Immunoglobulin lambda-like polypeptide 1 (protein)
chain: LLRPTAASQSRALGPGAPGGSSRSSLRSRWGRFLLQRGSWTGPRCWPRGFQSKHNSVTHVFGSGTQLTVLSQPKATPSVTLFPPSSEELQANKATLVCLMNDFYPGILTVTWKADGTPITQGVEMTTPSKQSNNKYAASSYLSLTPEQWRSRRSYSCQVMHEGSTVEKTVAPAECS
B5: Isoform 2 of RNA-binding protein 39 (protein)
chain: ADDIDIEAMLEAPYKKDENKLSSANGHEERSKKRKKSKSRSRSHERKRSKSKERKRSRDRERKKSKSRERKRSRSKERRRSRSRSRDRRFRGRYRSPYSGPKFNSAIRGKIGLPHSIKLSRRRSRSKSPFRKDKSPVREPIDNLTPEERDARTVFCMQLAARIRPRDLEEFFSTVGKVRDVRMISDRNSRRSKGIAYVEFVDVSSVPLAIGLTGQRVLGVPIIVQASQAEKNRAAAMANNLQKGSAGPMRLYVGSLHFNITEDMLRGIFEPFGRIESIQLMMDSETGRSKGYGFITFSDSECAKKALEQLNGFELAGRPMKVGHVTERTDASSASSFLDSDELERTGIDLGTTGRLQLMARLAEGTGLQIPPAAQQALQMSGSLAFGAVADLQTRLSQQTEASALAAAASVQPLATQCFQLSNMFNPQTEEEVGWDTEIKDDVIEECNKHGGVIHIYVDKNSAQGNVYVKCPSIAAAIAAVNALHGRWFAGKMITAAYVPLPTYHNLFPDSMTATQLLVPSRR
B6: Thioredoxin (protein)
chain: VKQIESKTAFQEALDAAGDKLVVVDFSATWCGPCKMIKPFFHSLSEKYSNVIFLEVDVDDCQDVASECEVKCMPTFQFFKKGQKVGEFSGANKEKLEATINELV
B7: Isoform 2 of Nucleophosmin (protein)
chain: MEDSMDMDMSPLRPQNYLFGCELKADKDYHFKVDNDENEHQLSLRTVSLGAGAKDELHIVEAEAMNYEGSPIKVTLATLKMSVQPTVSLGGFEITPPVVLRLKCGSGPVHISGQHLVAVEEDAESEDEEEEDVKLLSISGKRSAPGGGSKVPQKKVKLAADEDDDDDDEEDDDEDDDDDDFDDEEAEEKAPVKKGQESFKKQEKTPKTPKGPSSVEDIKAKMQASIEKGGSLPKVEAKFINYVKNCFRMTDQEAIQDLWQWRKSL
B8: Selenoprotein P (protein)
chain: ESQDQSSLCKQPPAWSIRDQDPMLNSNGSVTVVALLQASUYLCILQASKLEDLRVKLKKEGYSNISYIVVNHQGISSRLKYTHLKNKVSEHIPVYQQEENQTDVWTLLNGSKDDFLIYDRCGRLVYHLGLPFSFLTFPYVEEAIKIAYCEKKCGNCSLTTLKDEDFCKRVSLATVDKTVETPSPHYHHEHHHNHGHQHLGSSELSENQQPGAPNAPTHPAPPGLHHHHKHKGQHRQGHPENRDMPASEDLQDLQKKLCRKRCINQLLCKLPTDSELAPRSUCCHCRHLIFEKTGSAITUQCKENLPSLCSUQGLRAEENITESCQURLPPAAUQISQQLIPTEASASURUKNQAKKUEUPSN

Results on eight molecules are retold here after patent publication US9618524B2, “Method, composition, isolation and identification of a plaque particle and related biomarker” (Plaxgen Inc., priority 2012, dated 2017).

For one test, the system named is High Density cholesterol (Chl Large) plaque particles. The test is described as follows: Mass spectroscopy proteomics, semi-quantitative binding affinity of serum proteins (plaqueproteome, Table 2). More on the design: species or system human. As to conditions: higher number = stronger affinity. In a few lines: (§1)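 Serum or plasma from atherosclerotic subjects, as 50% serum, was incubated with 30 μg cholesterol aggregates for 1 h at 37 °C. High- and low-density particles were then flow-sorted, trypsin-digested and analysed by MS/MS. Proteins were identified by Sequest search against human UniProt and validated with Protein Prophet.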
As to B1, the “Semi-quantitative analysis of proteins binding to different plaque particles: Chl Large” value was found to be 0.

As for B2, the “Semi-quantitative analysis of proteins binding to different plaque particles: Chl Large” value is 0.

Consider B3, for which the “Semi-quantitative analysis of proteins binding to different plaque particles: Chl Large” value is 0.

As to B4, the “Semi-quantitative analysis of proteins binding to different plaque particles: Chl Large” value came out at 0.

Consider B5, for which the “Semi-quantitative analysis of proteins binding to different plaque particles: Chl Large” value is listed as 0.

As for B6, the “Semi-quantitative analysis of proteins binding to different plaque particles: Chl Large” value was 0.

Turning to B7, the “Semi-quantitative analysis of proteins binding to different plaque particles: Chl Large” value worked out at 0.

For B8, the “Semi-quantitative analysis of proteins binding to different plaque particles: Chl Large” value was determined as 0.

Another test concerns Low density cholesterol (Chl small) plaque particles. The test is described as above. Set-up: species or system human. The note with it: higher number = stronger affinity. In a few lines:
as §1
In the case of B1, the “Semi-quantitative analysis of proteins binding to different plaque particles: Chl small” value stood at 0.

Regarding B2, the “Semi-quantitative analysis of proteins binding to different plaque particles: Chl small” value is recorded as 0.

As for B3, the “Semi-quantitative analysis of proteins binding to different plaque particles: Chl small” value stood at 0.

With B4, the “Semi-quantitative analysis of proteins binding to different plaque particles: Chl small” value is 1.

For B5, the “Semi-quantitative analysis of proteins binding to different plaque particles: Chl small” value is 0.

For B6, the “Semi-quantitative analysis of proteins binding to different plaque particles: Chl small” value is 0.

As to B7, the “Semi-quantitative analysis of proteins binding to different plaque particles: Chl small” value came to 0.

For the molecule B8, the “Semi-quantitative analysis of proteins binding to different plaque particles: Chl small” value came out at 0.

For the next test, the system named is Tau plaque particles. The description is as above. More on the design: species or system human. The note with it: higher number = stronger affinity. In a few lines: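 Serum or plasma proteins captured on Thioflavin S-labelled Tau plaque particles (Tau-74, Tau-275 oligomers preformed in PBS at 37° C for 2 h; 1 h co-incubation at 37° C) were isolated by FACS sorting, then tryptically digested and identified by MS/MS (Sequest, human UniProt, strict trypsin).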
Consider B1, for which the “Semi-quantitative analysis of proteins binding to different plaque particles: Tau” value came to 0.

Regarding B2, the “Semi-quantitative analysis of proteins binding to different plaque particles: Tau” value is listed as 0.

Regarding B3, the “Semi-quantitative analysis of proteins binding to different plaque particles: Tau” value is recorded as 0.

As for B4, the “Semi-quantitative analysis of proteins binding to different plaque particles: Tau” value came out at 0.

Turning to B5, the “Semi-quantitative analysis of proteins binding to different plaque particles: Tau” value amounted to 0.

Consider B6, for which the “Semi-quantitative analysis of proteins binding to different plaque particles: Tau” value is reported as 0.

Consider B7, for which the “Semi-quantitative analysis of proteins binding to different plaque particles: Tau” value is 0.

On to B8, for which the “Semi-quantitative analysis of proteins binding to different plaque particles: Tau” value turned out to be 0.

For another test, the target named is T1, Abeta-42 plaque particles (Homo sapiens, UniProt P05067).
T1 construct: Abeta 1-42
The description is as above. The note with it: higher number = stronger affinity. In a few lines: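 AD patient serum or plasma (50% in PBS) was incubated with Abeta-42 aggregates (30 μg) for 1 h at 37 °C, then stained with Thioflavin S for 30 min. Labeled particles were FACS-sorted, trypsin/Lys-C digested overnight and analyzed by MS/MS. Sequest searched human UniProt; Scaffold/Protein Prophet validated the identifications.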
Regarding B1, the “Semi-quantitative analysis of proteins binding to different plaque particles: Abeta-42” value was found to be 2.

Consider B2, for which the “Semi-quantitative analysis of proteins binding to different plaque particles: Abeta-42” value was 2.

In the case of B3, the “Semi-quantitative analysis of proteins binding to different plaque particles: Abeta-42” value was 2.

On to B4, for which the “Semi-quantitative analysis of proteins binding to different plaque particles: Abeta-42” value came to 0.

Take B5: the “Semi-quantitative analysis of proteins binding to different plaque particles: Abeta-42” value is given as 2.

As for B6, the “Semi-quantitative analysis of proteins binding to different plaque particles: Abeta-42” value is 2.

For the molecule B7, the “Semi-quantitative analysis of proteins binding to different plaque particles: Abeta-42” value is listed as 4.

As to B8, the “Semi-quantitative analysis of proteins binding to different plaque particles: Abeta-42” value is given as 0.

The next test addresses T2, alpha-synuclein plaque particles (Homo sapiens, UniProt P37840).
T2 construct: 140 amino acids polypeptide
The description is as above. As to conditions: higher number = stronger affinity. The gist of the method:
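AD-subject plasma or serum (800 μL of 50%) mixed with 30 μg preformed alpha-synuclein aggregates for 1 h at 37 °C; Thioflavin S-positive particles isolated by flow sorting. After reduction, acrylamide alkylation and overnight tryptic digestion, serum proteins identified by MS/MS with Sequest and Scaffold.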
Turning to B1, the “Semi-quantitative analysis of proteins binding to different plaque particles: Synuclein” value came out at 0.

As to B2, the “Semi-quantitative analysis of proteins binding to different plaque particles: Synuclein” value was found to be 0.

On to B3, for which the “Semi-quantitative analysis of proteins binding to different plaque particles: Synuclein” value worked out at 0.

For B4, the “Semi-quantitative analysis of proteins binding to different plaque particles: Synuclein” value amounted to 0.

Take B5: the “Semi-quantitative analysis of proteins binding to different plaque particles: Synuclein” value amounted to 0.

Consider B6, for which the “Semi-quantitative analysis of proteins binding to different plaque particles: Synuclein” value came out at 0.

Consider B7, for which the “Semi-quantitative analysis of proteins binding to different plaque particles: Synuclein” value is on record as 0.

Take B8: the “Semi-quantitative analysis of proteins binding to different plaque particles: Synuclein” value worked out at 1.
